B1: Lysozyme C, P61626 (parent)
chain: MKALIVLGLVLLSVTVQGKVFERCELARTLKRLGMDGYRGISLANWMCLAKWESGYNTRATNYNAGDRSTDYGIFQINSRYWCNDGKTPGAVNACHLSCSALLQDNIADAVACAKRVVRDPQGIRAWVAWRNRCQNRDVRQYVQGCGV

Variants of: B1
Conditions: Homo sapiens, pH 3, Thermal, DSC, glycine-HCl 0.05 M, reversible: yes, structure 1LZ1, whole UniProt chain shown; for ddG of mutation (higher = less stable) / unfolding enthalpy (calorimetric) / unfolding free energy: 57 °C

Variant | ddG of mutation (higher = less stable) [kcal/mol] | unfolding enthalpy (calorimetric) [kcal/mol] | unfolding free energy [kcal/mol] | Tm [°C] | change of melting temperature, mutant - wild type (higher = more stable) [°C]
MKALIVLGLVLLSVTVQGKVFERCELARTLKRLGMDGYRGISLANWMCLAKWESGYNTRATNYNAGDRSTDYGIFQINSRYWCNDGKTPGAVNAAHLSCSALLQDNIADAVACAKRVVRDPQGIRAWVAWRNRCQNRDVRQYVQGCGV [C95A] | 4.6 | 94.8 | 0 |  | 
MKALIVLGLVLLSVTVQGKVFERCELARTLKRLGMDGYRGISLANWMCLAKWESGYNTRATNYNAGDRSTDYGIFQINSRYWCNDGKTPGAVNAAHLSCSALLQDNIADAVAAAKRVVRDPQGIRAWVAWRNRCQNRDVRQYVQGCGV [C95A C113A] | 4.6 | 90.8 | 0 | 56.9 | -14.5
